Kd data for 1 substance are collected here from PMC5458677.

This assay deals with His-tagged full-length Anisakis simplex macrophage migration inhibitory factor (As-MIF, 1-121) (Anisakis simplex). Briefly: SPR.

With “His-tagged human JAB1 (1-257) (from UniProt Q92905 1-257) (domain or fragment)”, the Kd turned out to be 16.6 nM. In other words, the double-digit nanomolar range.
